# In the supplement of paper PMC12764529:
# ± gives the half width of the 95% confidence interval.
# Assay: folding stability dG unfold from trypsin proteolysis; higher = more stable
# Procedure, shortened: (§1)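 Only designs with AlphaFold2 dimer inter-PAE above 15 were retained; each was a mini-protein under 80 residues with no cysteine, in a PA-tagged cDNA display construct. After digestion with trypsin and chymotrypsin and sequencing, K50 was inferred by Bayesian fitting of counts, and unfolding free energy was derived per protease or combined against a sequence-predicted unfolded-state K50 and a shared folded-state K50.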
row,Sequence,folding stability dG unfold
1,SAGGSAGGSAGLPPGDYRLFPFTVTITIPPIKVKDPNGDEHEIDNLEISITIYFFVPAGDSAGGSAGGSAGG [r11_907_TrROS],3.43 ± 0.15 kcal/mol
2,SAGGKDGKPKPKVEPEITVQFYIPLPPDDLTPEEIAQWMSDHFGFPFTNVEIERHPEDNYYRVSFTIRSAGG [r13_457_TrROS],1.86 ± 0.064 kcal/mol
3,SAGGTVTTEEVDDATYITVTKPSGETLTITAPALPDDTYLVTVYDPKTGKSTTKTVSSLDEAIKLLGSAGGS [r8_230_JUSTAS],2.2 ± 0.076 kcal/mol
4,SAGGKPNWVWFKITINVTPEQLENMTLDEIADRVIDELMKLGFPIKKIEIDEIQWDGDRVTIYIRIRVSAGG [r13_432_TrROS],4.18 ± 0.16 kcal/mol
5,SAGMIEITVEVPAEDMTEEELKELAEELARALREAGLPEDVKIVDVRVERLPDGTVRVTIKIEVKPPPSAGG [r19_87_TrROS_Hall],4.24 ± 0.26 kcal/mol
6,SAGGSAPSSGNVLEIKVEKLPDGTLVGTLTVKDPNSSNTTTIEITIPSSKTPEEAEAELKKIVEEASAGGSA [r15_181_JUSTAS],2.11 ± 0.068 kcal/mol
7,SAGGMKKYKIKVENLPPGARIITPDGREIKPGEEVEIELPEDVKEIYVILPDGKIVKVKVEEVEPEEESAGG [r13_441_TrROS_Hall],4.12 ± 0.3 kcal/mol
8,SAMEYTLEFDNLKGLTADEIEKAFRDEGYPDVKINGIRRNPDDWTITVHYGPGMPPNRVQNAIRKAIQESAG [r14_657_TrROS],1.21 ± 0.045 kcal/mol
9,SAGGSAGGSAGKKVLVLSEDEIAELLGLSKEEIENMSEEEKEKLALELAKKLGIDEVIITSAGGSAGGSAGG [r11_80_TrROS_Hall],3.76 ± 0.11 kcal/mol
10,SAPDVGPEERARRLIEEARAEVEAARAAGDPSVPRRVVFDELAVAHPEEAARILEEAARLGIPVEVRPPSAG [r14_908_JUSTAS],0.252 ± 0.11 kcal/mol
11,SAGGSALKIMVEPDPEDGTVRVWFMIPNPENGEEFMVQAEIDPNGKIEDVEVYPNGNMIWITFKLPSAGGSA [r15_557_TrROS],2.4 ± 0.061 kcal/mol
12,SSKTVTVTTEEEEKEAREKIKELVKPGKSVDVEITMTGPDGTRTRRTYKITTNPDGTITIEETETPLPPPSA [r9_1023_JUSTAS],1.5 ± 0.034 kcal/mol
13,SAGGESTPEIEPVATLELPTPDGRPITVEVYRLKDGTVRVVVRNPNPPETITLTIPAKEGETIPIFLSAGGS [r16_566_TrMRF],1.9 ± 0.04 kcal/mol
14,SAGGSAGLEGVAKAILDKLPPNRKIAAFTVNEEEAKTATFTTPDGNEINITAAGDKIASIDIIDAESAGGSA [r15_175_TrMRF],-1.09 ± 0.51 kcal/mol
15,SMTLVLENEDGSLYRIEFDEETGEIYIYNAETGEKYRITFKDGKTEEINAKDLSLEELKALPGLKIEPVPSA [r9_205_TrROS_Hall],2.74 ± 0.061 kcal/mol
16,SAGEKKLTEEEIKKLVEELLKKLKPGEKEKVTLEIELTLEDGRKVKIRITVEVKDGKLVVKIEVEELPSAGG [r19_220_TrROS_Hall],3.65 ± 0.27 kcal/mol
17,SAGGSFHDLAKELAKKRGLKKVSINMHPEDNSMNINIQNPEKGRPVQGNIPMEDMTPETVLDQIENILESAG [r5_896_TrROS],-1.04 ± 0.69 kcal/mol
18,SAGGSAGGSAGEVVLSPTDKTLTLTSFDPKTGVTYYTVFYPATGTTSTTSTGNLESLIAASAGGSAGGSAGG [r17_300_JUSTAS],1.25 ± 0.024 kcal/mol
19,SAGGSAGGSKPGKPREIMIPFPDNWFMSIRVWPGRIEIENPDNGKEFEIPIGAPIEIELFPLDSAGGSAGGS [r12_227_TrROS],1.98 ± 0.035 kcal/mol
20,SAGGSAGGSAGGPPVTLLVVVRNEDGSLYLVRVEFDLETNEVKVEVFTLDDLKNLPEELSAGGSAGGSAGGS [r10_1077_TrROS_Hall],2.14 ± 0.14 kcal/mol
21,STKLLPFEEALKEAEKAIKEGKKKVNITIYTPDGKTFNLTDVEKVKEFIEKEFPGISLSELTVTVSITPPES [r1_325_JUSTAS],2.86 ± 0.068 kcal/mol

# Assay: folding stability dG unfold from chymotrypsin proteolysis; higher = more stable
# Procedure, shortened: as §1
row,Sequence,folding stability dG unfold
1,SAKLEIELNGYKIVSVEVNEDGTVKMKIEVDGKLYELTLKVKLPPPKVEVKEEKKEVKEVKFVKEGEEKSAG [r14_218_TrROS_Hall],2.15 ± 0.094 kcal/mol
2,SAGGSAKIEITIFIPGMSEEEVKKLAEELAEELRKKGLSDEEIKEIKIKVYKVPVYKTEDGKLVKVSAGGSA [r15_684_TrROS_Hall],1.82 ± 0.059 kcal/mol
3,SAGPLPEDVAAGKPVDVEAPIPLRRKDGDLLAVFPITGPMTVKELLEVLEAIRERARELDLPPVEDLDRSAG [r5_606_TrMRF],-0.268 ± 0.21 kcal/mol
4,SAGGSAMDAKVVDLSLPFTLSEDGSLTATVTIEFPDGSKVPIEIPGREDGELKLEEILAAAKEALGSAGGSA [r15_233_TrMRF],0.27 ± 0.069 kcal/mol
5,SAGGSAGGSEYRIELELFRTPEGGLVVPVRIYPPDGGRFEGPASLEELVERFGFSFPPLLELLSAGGSAGGS [r20_235_TrMRF],2.54 ± 0.12 kcal/mol
6,SAGMKKVKIETTEFREFEGGEREIVMKVYKPDGSEVATVVLPFPPDLSEEEMRERAEAEAKKLAEELGLSAG [r5_697_JUSTAS],0.579 ± 0.17 kcal/mol
7,SAMKITEITYDKETNTITITVEIKLPPGVKKIKLKLFIDGAEIEEITMEVDEETGTVRITLKIRIPKDASAG [r14_244_TrROS_Hall],6.06 ± 0.78 kcal/mol
8,SAGWIIRITLPDNGRTIEIDFENGYIIKITSPDEGKPRVIPIPPDDIREWIKELFPGPVRIVEIYPLPKSAG [r5_519_TrROS],3.09 ± 0.05 kcal/mol
9,SAGGSAGGSAGTVIRVRDKNGKIVEISLEEAAELLGIPPSELTLEDIVKAFAEKVDSIEILSSAGGSAGGSA [r18_403_TrMRF],2.3 ± 0.038 kcal/mol
10,SAGGSAGGSAGPFEGYRDKKGKYYLETPDGTKELDSEEELEEEKKRLLEEGIPINVKPSASAGGSAGGSAGG [r17_35_JUSTAS],0.71 ± 0.14 kcal/mol
11,SAGGSAGGSAGEIVEVDGKLYIRVRTKDGEWKLIEMSADEIASLPAENVEEVEIVDPKDLSAGGSAGGSAGG [r11_779_TrROS_Hall],3.16 ± 0.075 kcal/mol
12,SAGGSAGGSAGGSEVEVLDSRPLPDGHHLVLVRFPDGSYALYRIYPDGSVEVEVFSDDGSAGGSAGGSAGGS [r4_483_TrMRF],4.205 ± 0.029 kcal/mol
13,SAGGSAGGSDKIKELAKKLKIVKVEKKKDGKYILLVKDEKTGKLYEIEVDLKTNKVTIKELKPSAGGSAGGS [r12_944_TrROS_Hall],4.31 ± 0.13 kcal/mol
14,SAGRKIEIHVPYDELRELFGPGQTAEDLADWIAQEGYQIEDIEVEPEPNPNNGKKYYRVTFEVKPPKKSAGG [r19_376_TrROS],1.28 ± 0.12 kcal/mol
15,SAGGSAGGSAGGFKLPPGKPIEFPIKHGGEPYPVEIWRDPNKLMIHFPGNNQWIPADDIKSAGGSAGGSAGG [r7_37_TrROS],-0.589 ± 0.87 kcal/mol
16,SAGGSAGGSAGGPTLELEITLPDGFKLRVTFDPEKGLRVELVEPVPAPPPKVEYRSLEDLSAGGSAGGSAGG [r11_188_TrROS_Hall],1.62 ± 0.11 kcal/mol
17,SAKKVEVKKIKVEVTFYDKNGKKVKKKKATITVVKVDGKYYVTIYDENTGKKYVFEFPSLEEAKKALKKSAG [r14_508_TrROS_Hall],3.09 ± 0.044 kcal/mol
18,SAGGSAGGSMKVVKVELTLTGPGGEVTYLEEEIEVPEDELGEIEVSLPDENLSYEVTVEVIEESAGGSAGGS [r12_354_JUSTAS],1.41 ± 0.071 kcal/mol
19,SAGGSAGGSAGGGMSSAPPVTITPVSETTERLPNGTLVRTTTYAVDDGSTVTTTTVTPVSSAGGSAGGSAGG [r7_948_JUSTAS],0.952 ± 0.069 kcal/mol
20,SAGGSAGGSAGPNAVYLGELEVTTRNPDGDRPLRVRVELYLVPTPEGLRLLARVLEVEELSAGGSAGGSAGG [r11_113_TrMRF],3.644 ± 0.021 kcal/mol
21,SAGGSAGGSAGLPPGDYRLFPFTVTITIPPIKVKDPNGDEHEIDNLEISITIYFFVPAGDSAGGSAGGSAGG [r11_907_TrROS],4.58 ± 0.12 kcal/mol

row,Sequence,folding stability dG unfold
1,SAGGKDGKPKPKVEPEITVQFYIPLPPDDLTPEEIAQWMSDHFGFPFTNVEIERHPEDNYYRVSFTIRSAGG [r13_457_TrROS],2.56 ± 0.1 kcal/mol
2,SAGGTVTTEEVDDATYITVTKPSGETLTITAPALPDDTYLVTVYDPKTGKSTTKTVSSLDEAIKLLGSAGGS [r8_230_JUSTAS],1.83 ± 0.019 kcal/mol
3,SAGGKPNWVWFKITINVTPEQLENMTLDEIADRVIDELMKLGFPIKKIEIDEIQWDGDRVTIYIRIRVSAGG [r13_432_TrROS],4.59 ± 0.099 kcal/mol
4,SAGMIEITVEVPAEDMTEEELKELAEELARALREAGLPEDVKIVDVRVERLPDGTVRVTIKIEVKPPPSAGG [r19_87_TrROS_Hall],3.59 ± 0.44 kcal/mol
5,SAGGSAPSSGNVLEIKVEKLPDGTLVGTLTVKDPNSSNTTTIEITIPSSKTPEEAEAELKKIVEEASAGGSA [r15_181_JUSTAS],2.09 ± 0.025 kcal/mol
6,SAGGMKKYKIKVENLPPGARIITPDGREIKPGEEVEIELPEDVKEIYVILPDGKIVKVKVEEVEPEEESAGG [r13_441_TrROS_Hall],4.31 ± 0.15 kcal/mol
7,SAMEYTLEFDNLKGLTADEIEKAFRDEGYPDVKINGIRRNPDDWTITVHYGPGMPPNRVQNAIRKAIQESAG [r14_657_TrROS],1.87 ± 0.091 kcal/mol
8,SAGGSAGGSAGKKVLVLSEDEIAELLGLSKEEIENMSEEEKEKLALELAKKLGIDEVIITSAGGSAGGSAGG [r11_80_TrROS_Hall],3.31 ± 0.094 kcal/mol
9,SAPDVGPEERARRLIEEARAEVEAARAAGDPSVPRRVVFDELAVAHPEEAARILEEAARLGIPVEVRPPSAG [r14_908_JUSTAS],0.98 ± 0.044 kcal/mol
10,SAGGSALKIMVEPDPEDGTVRVWFMIPNPENGEEFMVQAEIDPNGKIEDVEVYPNGNMIWITFKLPSAGGSA [r15_557_TrROS],3.36 ± 0.037 kcal/mol
11,SSKTVTVTTEEEEKEAREKIKELVKPGKSVDVEITMTGPDGTRTRRTYKITTNPDGTITIEETETPLPPPSA [r9_1023_JUSTAS],2.43 ± 0.057 kcal/mol
12,SAGGESTPEIEPVATLELPTPDGRPITVEVYRLKDGTVRVVVRNPNPPETITLTIPAKEGETIPIFLSAGGS [r16_566_TrMRF],2.2 ± 0.045 kcal/mol
13,SAGGSAGLEGVAKAILDKLPPNRKIAAFTVNEEEAKTATFTTPDGNEINITAAGDKIASIDIIDAESAGGSA [r15_175_TrMRF],0.429 ± 0.19 kcal/mol
14,SMTLVLENEDGSLYRIEFDEETGEIYIYNAETGEKYRITFKDGKTEEINAKDLSLEELKALPGLKIEPVPSA [r9_205_TrROS_Hall],3.285 ± 0.023 kcal/mol
15,SAGEKKLTEEEIKKLVEELLKKLKPGEKEKVTLEIELTLEDGRKVKIRITVEVKDGKLVVKIEVEELPSAGG [r19_220_TrROS_Hall],3.64 ± 0.52 kcal/mol
16,SAGGSFHDLAKELAKKRGLKKVSINMHPEDNSMNINIQNPEKGRPVQGNIPMEDMTPETVLDQIENILESAG [r5_896_TrROS],0.297 ± 0.28 kcal/mol
17,SAGGSAGGSAGEVVLSPTDKTLTLTSFDPKTGVTYYTVFYPATGTTSTTSTGNLESLIAASAGGSAGGSAGG [r17_300_JUSTAS],0.531 ± 0.13 kcal/mol
18,SAGGSAGGSKPGKPREIMIPFPDNWFMSIRVWPGRIEIENPDNGKEFEIPIGAPIEIELFPLDSAGGSAGGS [r12_227_TrROS],1.81 ± 0.095 kcal/mol
19,SAGGSAGGSAGGPPVTLLVVVRNEDGSLYLVRVEFDLETNEVKVEVFTLDDLKNLPEELSAGGSAGGSAGGS [r10_1077_TrROS_Hall],3.66 ± 0.075 kcal/mol
20,STKLLPFEEALKEAEKAIKEGKKKVNITIYTPDGKTFNLTDVEKVKEFIEKEFPGISLSELTVTVSITPPES [r1_325_JUSTAS],3.53 ± 0.065 kcal/mol
